# Experimental data reported in article PMC4751342.
# Experiments:
# [1] = target: human Izumo1, immobilized AVEXIS bait (UniProt Q8IYV9); assay: AVEXIS; conditions: parent: est. 0.16; read off a plot
# [2] = target: mouse Izumo1, immobilized AVEXIS bait (UniProt Q9D9J7); assay: AVEXIS; conditions: parent: est. 0.51; read off a plot
# Chain of mouse Izumo1, immobilized AVEXIS bait (Q9D9J7 22-397): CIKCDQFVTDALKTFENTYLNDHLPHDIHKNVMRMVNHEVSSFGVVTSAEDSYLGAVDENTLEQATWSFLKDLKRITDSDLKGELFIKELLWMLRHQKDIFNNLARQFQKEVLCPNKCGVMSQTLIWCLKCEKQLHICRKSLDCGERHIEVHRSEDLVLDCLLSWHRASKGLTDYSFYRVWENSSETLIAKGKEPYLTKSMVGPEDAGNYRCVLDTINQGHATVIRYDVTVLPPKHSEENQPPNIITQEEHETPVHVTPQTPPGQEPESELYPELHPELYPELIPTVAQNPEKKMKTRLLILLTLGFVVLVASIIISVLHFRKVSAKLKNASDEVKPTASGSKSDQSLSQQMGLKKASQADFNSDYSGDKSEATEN
# Chain of human Izumo1, immobilized AVEXIS bait (Q8IYV9 22-350): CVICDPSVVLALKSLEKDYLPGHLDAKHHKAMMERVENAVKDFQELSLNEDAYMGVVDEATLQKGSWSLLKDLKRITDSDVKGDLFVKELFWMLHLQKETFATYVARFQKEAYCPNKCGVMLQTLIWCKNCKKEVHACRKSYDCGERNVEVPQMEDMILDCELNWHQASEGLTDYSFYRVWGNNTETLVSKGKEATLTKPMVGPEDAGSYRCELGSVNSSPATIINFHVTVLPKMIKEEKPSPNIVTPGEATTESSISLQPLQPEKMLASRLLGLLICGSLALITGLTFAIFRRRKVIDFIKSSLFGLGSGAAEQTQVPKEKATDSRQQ
# Chain of mouse Juno, wild type, AVEXIS prey (from UniProt Q9EQF4) Loop 2 (mouse Juno loop 2 replaced with the corresponding human residues) (Q9EQF4 20-222, change not shown): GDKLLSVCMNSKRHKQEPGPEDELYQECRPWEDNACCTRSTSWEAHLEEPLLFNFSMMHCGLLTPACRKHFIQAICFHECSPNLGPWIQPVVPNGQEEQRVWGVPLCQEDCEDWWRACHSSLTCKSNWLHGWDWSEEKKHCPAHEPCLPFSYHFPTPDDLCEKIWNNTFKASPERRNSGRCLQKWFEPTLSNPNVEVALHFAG
# Chain of mouse Juno, wild type, AVEXIS prey (from UniProt Q9EQF4) Loop1 (mouse Juno loop 1 replaced with the corresponding human residues) (Q9EQF4 20-222, change not shown): as above
# Chain of mouse Juno, wild type, AVEXIS prey (from UniProt Q9EQF4) Loop 3 (mouse Juno loop 3 replaced with the corresponding human residues) (Q9EQF4 20-222, change not shown): as above
Substance,response [1],response [2]
"mouse Juno, wild type, AVEXIS prey (from UniProt Q9EQF4) Loop1 (mouse Juno loop 1 replaced with the corresponding human residues)",0.16 A 485 nm,0.22 A 485 nm
"mouse Juno, wild type, AVEXIS prey (from UniProt Q9EQF4) Loop 2 (mouse Juno loop 2 replaced with the corresponding human residues)",0.17 A 485 nm,0.51 A 485 nm
"mouse Juno, wild type, AVEXIS prey (from UniProt Q9EQF4) Loop 3 (mouse Juno loop 3 replaced with the corresponding human residues)",0.51 A 485 nm,0.52 A 485 nm
